Test results published in patent publication US20190359693A1 (Janssen / Centocor, published 2019).

Key:
HA of H3N2 A/HK/1/68 [1] = biological target: T1, HA of H3N2 A/HK/1/68 (influenza A virus, UniProt Q91MA7 17-530); assay: BLI steady state
[2] = biological target: HA of H7N7 A/Common Teal/MPF139/07 (influenza A virus); assay: cell-based or functional assay
HA of H7N9 A/Anhui/1/13 = HA of H7N9 A/Anhui/1/13 (influenza A virus); assay: cell-based or functional assay
[3] = biological target: HA of H7N9 A/Shanghai/1/13 (influenza A virus); assay: cell-based or functional assay
[4] = biological target: HA of H7N9 A/Shanghai/2/13 (influenza A virus); assay: cell-based or functional assay
[5] = biological target: HA of H10N8 A/Jiangxi/346/2013 (influenza A virus); assay: cell-based or functional assay
[6] = biological target: HA of H10N3 A/Common Teal/MPH11/08 (influenza A virus); assay: cell-based or functional assay
[7] = biological target: HA of H10N9 A/Northern Shoveler/MPE2531/08 (influenza A virus); assay: cell-based or functional assay
[8] = biological target: HA of B/Florida/04/2006 (Yamagata) (influenza B virus); assay: cell-based or functional assay
HA of H3N2 A/HK/1/68 [9] = biological target: T1, HA of H3N2 A/HK/1/68; assay: cell-based or functional assay
[10] = biological target: T2, HA of H7N7 A/Netherlands/219/2003 (influenza A virus, UniProt P36346 19-563); assay: cell-based or functional assay
[11] = biological target: HA of H2N2 A/Guiyang/1/57 (influenza A virus); assay: cell-based or functional assay
[12] = biological target: HA of H2N2 A/WF/HK/MPU3156/05 (influenza A virus); assay: cell-based or functional assay
[13] = biological target: HA of H4 A/WF/HK/MPA892/06 (influenza A virus); assay: cell-based or functional assay
HA of H7N7 A/PR8 H7N7-NY = HA of H7N7 A/PR8 H7N7-NY (influenza A virus); assay: cell-based or functional assay
[14] = biological target: HA of H10N7 A/Chick/Germany/N/49 (influenza A virus); assay: cell-based or functional assay
[15] = biological target: HA of H1N1 A/Mississippi/03/01 274H (influenza A virus); assay: cell-based or functional assay
[16] = biological target: HA of H1N1 A/Solomon Islands/3/2006 (IVR 145) (influenza A virus); assay: cell-based or functional assay
HA of H1N1 A/WSN/33 = HA of H1N1 A/WSN/33 (influenza A virus, UniProt P03454 18-565); assay: cell-based or functional assay
HA of H1N1 A/HK/54/98 = HA of H1N1 A/HK/54/98 (influenza A virus); assay: cell-based or functional assay
[17] = biological target: HA of H1N1 A/Christchurch/16/10 (influenza A virus); assay: cell-based or functional assay
[18] = biological target: HA of H1N2 A/Env/HK/MPU3156/05 (influenza A virus); assay: cell-based or functional assay
[19] = biological target: HA of H5N1 A/Indonesia/5/05 (influenza A virus); assay: cell-based or functional assay
[20] = biological target: HA of H5N2 A/Eurasian Wigeon/MPF461/07 (influenza A virus); assay: cell-based or functional assay
[21] = biological target: HA of H5N2 A/Eurasian Wigeon/HK/MPF333/07 (influenza A virus); assay: cell-based or functional assay
[22] = biological target: HA of H2N2 A/AnnArbor/23/57 (influenza A virus); assay: cell-based or functional assay
[23] = biological target: HA of H2N2 A/Env/HK/MPU3156/05 (influenza A virus); assay: cell-based or functional assay
[24] = biological target: HA of H6N1 A/Eurasian Wigeon/MPG1884/09 (influenza A virus); assay: cell-based or functional assay
[25] = biological target: HA of H6N1 A/Taiwan/2/2013 (influenza A virus); assay: cell-based or functional assay
[26] = biological target: HA of H6N8 A/Eurasian Wigeon/MPD411/07 (influenza A virus); assay: cell-based or functional assay
[27] = biological target: HA of H11N9 A/Northern Pintail/MPC2085/07 (influenza A virus); assay: cell-based or functional assay
[28] = biological target: HA of H9N2 A/Ck/HK/SSP176/09 (influenza A virus); assay: cell-based or functional assay
[29] = biological target: HA of H9N2 A/Great Cormorant/MP2934/04 (influenza A virus); assay: cell-based or functional assay
[30] = biological target: HA of H9N2 A/HK/466419/09 (influenza A virus); assay: cell-based or functional assay
[31] = biological target: HA of H8N4 A/Eurasian Wigeon/MPH571/08 (influenza A virus); assay: cell-based or functional assay
[32] = biological target: HA of H8N2 A/Env/MPJ1258/09 (influenza A virus); assay: cell-based or functional assay
[33] = biological target: HA of H12N5 A/Env/MPK659/09 (influenza A virus); assay: cell-based or functional assay
HA of H3N2 A/Fukui/45/04 = HA of H3N2 A/Fukui/45/04 (influenza A virus); assay: cell-based or functional assay
HA of H3N2 A/Aichi/2/68 = HA of H3N2 A/Aichi/2/68 (influenza A virus, UniProt P03437 17-566); assay: cell-based or functional assay
[34] = biological target: HA of H3N2 A/Johannesburg/33/94 (influenza A virus); assay: cell-based or functional assay
HA of H3N2 A/Perth/16/09 = HA of H3N2 A/Perth/16/09 (influenza A virus); assay: cell-based or functional assay
[35] = biological target: HA of H3N2 A/Victoria/210/09 (influenza A virus); assay: cell-based or functional assay
[36] = biological target: HA of H4N1 A/Northern Pintail/MPB1368/06 (influenza A virus); assay: cell-based or functional assay
[37] = biological target: HA of H4N6 A/Great Cormorant/MPB1683/06 (influenza A virus); assay: cell-based or functional assay
[38] = biological target: HA of H14N5 A/Mallard/Astrakhan/263/1982 (influenza A virus); assay: cell-based or functional assay
[39] = biological target: HA of H7N7 A/Northern Shoveler/MPF518/08 (influenza A virus); assay: cell-based or functional assay
[40] = biological target: T2, HA of H7N7 A/Netherlands/219/2003; assay: AlphaLISA competition vs CR9114
[41] = biological target: HA of B/Malaysia/2506/04 (Victoria) (influenza B virus); assay: cell-based or functional assay
[42] = biological target: HA of B/Harbin/7/94 (Yamagata) (influenza B virus); assay: cell-based or functional assay
[43] = biological target: HA of B/Massachusetts/02/12 (Yamagata) (influenza B virus); assay: cell-based or functional assay
HA of B/Lee/40 = HA of B/Lee/40 (influenza B virus, UniProt P03460 16-552); assay: cell-based or functional assay
[44] = biological target: HA of B/Harbin/7/94 (Yamagata) (influenza B virus); assay: cell-based or functional assay; remark: listed apart in the source
[45] = biological target: HA of H5N1 A/Vietnam/1194/04 (influenza A virus); assay: cell-based or functional assay

B1: SD1038 (VHH)
VHH: EVQLVESGGGLVQPGGSLRLSCAVSISIFDIYAMDWYRQAPGKQRDLVATSFRDGSTNYADSVKGRFTISRDNAKNTLYLQMNSLKPEDTAVYLCHVSLYRDPLGVAGGMGVYWGKGALVTVSS
notes: llama sdAb
HA of H3N2 A/HK/1/68 [1]
  Kd: 44 nM
[2]
  VNA titer: 359 nM
HA of H7N9 A/Anhui/1/13
  VNA titer: 253 nM
[3]
  VNA titer: 503 nM
[4]
  VNA titer: 239 nM
[5]
  VNA titer: 239 nM
[6]
  VNA titer: 301 nM
[7]
  VNA titer: 327 nM
[8]
  VNA titer: > 1000 nM
HA of H3N2 A/HK/1/68 [9]
  VNA titer: 40.2 nM
[10]
  VNA titer: 181 nM
[11]
  VNA titer: 102 nM
[12]
  VNA titer: 31.4 nM
[13]
  VNA titer: > 1000 nM
HA of H7N7 A/PR8 H7N7-NY
  VNA titer: 80.6 nM
[14]
  VNA titer: 469 nM
[15]
  VNA titer: 4.7 nM
[16]
  VNA titer: 4.1 nM
HA of H1N1 A/WSN/33
  VNA titer: 5 nM
HA of H1N1 A/HK/54/98
  VNA titer: 16.5 nM
[17]
  VNA titer: 2.6 nM
[18]
  VNA titer: 40.5 nM
[19]
  VNA titer: 32.8 nM
[20]
  VNA titer: 18.8 nM
[21]
  VNA titer: 11 nM
[22]
  VNA titer: 33 nM
[23]
  VNA titer: 23.2 nM
[24]
  VNA titer: 16.2 nM
[25]
  VNA titer: 15.3 nM
[26]
  VNA titer: 13.2 nM
[27]
  VNA titer: 160 nM
[28]
  VNA titer: 90.8 nM
[29]
  VNA titer: 105 nM
[30]
  VNA titer: 700 nM
[31]
  VNA titer: 53.4 nM
[32]
  VNA titer: 58.7 nM
[33]
  VNA titer: > 1000 nM
HA of H3N2 A/Fukui/45/04
  VNA titer: 632 nM
HA of H3N2 A/Aichi/2/68
  VNA titer: 127 nM
[34]
  VNA titer: 443 nM
HA of H3N2 A/Perth/16/09
  VNA titer: 253 nM
[35]
  VNA titer: 253 nM
[36]
  VNA titer: 485 nM
[37]
  VNA titer: 275 nM
[38]
  VNA titer: 253 nM
[39]
  VNA titer: 441 nM
[40]
  pIC50: 7.5

B2: SD1084 (VHH)
VHH: EVQLVESGGGLVQPGGSLKLSCAASGFTFSTSWMYWLRQAPGKGLEWVSVINTDGGTYYADSVKDRFTISRDNAKDTLYLQMSSLKSEDTAVYYCAKDWGGPEPTRGQGTQVTVSS
[41]
  VNA titer: 34.9 nM
[42]
  VNA titer: 240 nM
[43]
  VNA titer: 40 nM
HA of B/Lee/40
  VNA titer: > 1000 nM
[44]
  hemagglutination inhibition titer: 1.1 µg/mL
[45]
  hemagglutination inhibition titer: > 50 µg/mL
